{
  "source": "patent US20040081655A1",
  "about": "“Methods and compositions comprising polycationic compounds” (priority 2001, published 2004)",
  "key": {"[1]": {"test": "FACS analyses of lymphoid and non-lymphoid tissues for CpG-ODN-Cy5 (Example 2b)", "design": "species or system Mice C57B1/6", "settings": "mouse, in vivo, sc", "procedure": "Mice were injected subcutaneously into the right flank with a total volume of 100 μl containing the above mentioned compounds. One day after injection, mice were sacrificed and FACS-analyses were performed from secondary lymphoid organs (draining lymph node, spleen) as well as non-lymphoid tissues (lung, liver, kidney, heart) (FIG. 2b)."}, "[2]": {"test": "Depot formation at the injection site, fluorescence-labelled compounds, photos (Example 2a)", "design": "species or system Mice C57Bl/6", "settings": "mouse, in vivo, sc", "procedure": "On day 0 mice were injected subcutaneously into the right flank with a total volume of 100 μl containing the above mentioned compounds. Animals were sacrificed at the indicated time points after injection and photos were taken from the injection sites (FIG. 2a)."}, "[3]": {"test": "Depot formation at the injection site at day 4, labelled TRP-2 peptide/pR60/CpG-ODN (Example 3)", "assay_type": "in vivo, Mice C57Bl/6", "settings": "injected either alone or in combination with CpG-ODN-Cy5", "procedure": "On day 0 mice were injected subcutaneously into the right flank with a total volume of […] containing the above mentioned compounds. Animals were sacrificed at day 4 after injection and photos were taken from the injection sites (FIG. 3)."}},
  "note": "No end group written: not given here.",
  "data": [
    {"substance": "CpG-ODN-Cy5: phosphothioate-modified, Cy5-labeled oligodinucleotides containing a CpG motif: tcc atg acg ttc ctg atg ct (DNA TCCATGACGTTCCTGATGCT; DNA, all phosphorothioate, methylation of C not given here; Cy5 label)", "values": [
      {"measurement": "CpG-ODN-Cy5 in secondary lymphoid organs and non-lymphoid tissues (FACS)", "setting": "[1]", "value": "detectable in secondary lymphoid organs (draining lymph node, spleen) and non-lymphoid tissues (lung, liver, kidney, heart)"},
      {"measurement": "distribution of CpG-ODN-Cy5 after injection", "setting": "[2]", "value": "distribution of CpG-ODN-Cy5 all over the skin"}
    ]},
    {"substance": "TRP-2181-188-peptide-FITC: FITC-labeled TRP-2-Peptide (VYDFFVWL), MHC class I (H-2 Kb) restricted epitope of mouse tyrosinase related protein-2 (also: FITC label, site not given here)", "values": [
      {"measurement": "presence of the labelled peptide at the injection site", "setting": "[3]", "value": "not detectable at the injection site at day 4"}
    ]}
  ]
}
